Measured values as given in PMC4461315, “A Mutant Library Approach to Identify Improved Meningococcal Factor H Binding Protein Vaccine Antigens” (PLoS ONE, 2015).

Target: T1, human complement Factor H (human, UniProt P08603 19-1231)
T1 construct: also called FH; human FH; source: bought: Complement Technologies (purified human FH)
Assay: SPR
Settings: both partners purified

T1 sequence (P08603 19-1231): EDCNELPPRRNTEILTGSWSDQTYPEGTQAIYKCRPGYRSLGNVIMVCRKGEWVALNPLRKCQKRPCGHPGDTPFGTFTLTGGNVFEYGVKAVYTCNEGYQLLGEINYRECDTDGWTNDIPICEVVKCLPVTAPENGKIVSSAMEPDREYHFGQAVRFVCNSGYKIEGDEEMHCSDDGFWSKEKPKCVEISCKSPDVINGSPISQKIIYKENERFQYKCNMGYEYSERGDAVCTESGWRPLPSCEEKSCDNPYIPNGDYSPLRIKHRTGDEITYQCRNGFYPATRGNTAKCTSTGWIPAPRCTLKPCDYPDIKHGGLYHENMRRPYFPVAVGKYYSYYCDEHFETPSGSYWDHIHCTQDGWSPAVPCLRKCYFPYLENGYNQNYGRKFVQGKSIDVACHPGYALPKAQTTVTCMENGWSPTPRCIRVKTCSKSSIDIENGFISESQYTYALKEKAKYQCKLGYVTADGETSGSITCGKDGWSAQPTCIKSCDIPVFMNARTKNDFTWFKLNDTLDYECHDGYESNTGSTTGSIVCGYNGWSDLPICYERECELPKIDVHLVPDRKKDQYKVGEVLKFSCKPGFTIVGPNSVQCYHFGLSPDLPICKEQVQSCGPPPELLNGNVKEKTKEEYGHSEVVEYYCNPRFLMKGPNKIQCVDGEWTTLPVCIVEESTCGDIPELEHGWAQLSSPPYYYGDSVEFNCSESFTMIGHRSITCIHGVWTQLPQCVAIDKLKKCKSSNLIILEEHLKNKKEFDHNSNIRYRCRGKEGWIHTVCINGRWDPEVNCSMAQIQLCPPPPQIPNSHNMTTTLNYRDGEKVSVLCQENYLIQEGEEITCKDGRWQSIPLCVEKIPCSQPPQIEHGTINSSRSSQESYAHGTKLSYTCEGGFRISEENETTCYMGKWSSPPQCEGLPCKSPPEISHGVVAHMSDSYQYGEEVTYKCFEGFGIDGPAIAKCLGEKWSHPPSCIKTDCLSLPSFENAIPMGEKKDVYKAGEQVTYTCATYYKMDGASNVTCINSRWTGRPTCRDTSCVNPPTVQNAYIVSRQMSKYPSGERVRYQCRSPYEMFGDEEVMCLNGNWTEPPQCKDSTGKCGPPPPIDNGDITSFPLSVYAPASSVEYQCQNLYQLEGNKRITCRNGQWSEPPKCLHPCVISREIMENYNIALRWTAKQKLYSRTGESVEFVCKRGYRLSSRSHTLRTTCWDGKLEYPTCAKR

B1: wild-type FHbp ID 1, soluble recombinant (natural protein)
chain: CSSGGGGVAADIGAGLADALTAPLDHKDKGLQSLTLDQSVRKNEKLKLAAQGAEKTYGNGDSLNTGKLKNDKVSRFDFIRQIEVDGQLITLESGEFQVYKQSHSALTAFQTEQIQDSEHSGKMVAKRQFRIGDIAGEHTSFDKLPEGGRATYRGTAFGSDDAGGKLTYTIDFAAKQGNGKIEHLKSPELNVDLAAADIKPDGKRHAVISGSVLYNQAEKGSYSLGIFGGKAQEVAGSAEVKTVNGIRHIGLAAKQ
notes: also called WT
Question: For B1, which Kd is on record?
Answer: Its Kd is 17 nM.
